The target of the assay is H-2 I-A^d class II MHC molecule (mouse). The assay can be described thus: radioligand binding.

These results are taken from publication PMC6736755.

pIC50: −log10 of the molar value.

OVA323–339 peptide (WT): the negative logarithm of the IC50 (pIC50) (as a rule, −log10 of the IC50, conventionally taken in molar units) was 8.70.
